{"source": "patent US20050025760A1", "about": "(KEIO UNIVERSITY, published 2005)", "binders": {"B1": {"name": "anti-Dsg3 monoclonal antibody AK23 (antibody, mouse IgG1, V domains shown)", "VH": "QVQLQQSGTELVKPGASVKLSCKSSGYTFTSYWINWVKQRPGQGLEWIGNINPSNGGINYNEKFKSKATLTVDKSSSTAYMQLKSLTSEDSAVYYCARGGYDGYPWGQGTTVTVS", "VL": "DIQMTQSPKFLLVSAGDRVTITCKASQSVSYDVAWYQQKPGQSPKLLISYASNRYTGVPDRFTGSGYGSDFTFTISTVQTEDLAVYFCQQDYSSPWTFGGGTKLELKR", "notes": "Mouse IgG1 kappa hybridoma antibody"}}, "key": {"[1]": {"molecular_target": "T1, recombinant protein human Dsg3-His (human, UniProt P32926 50-615)", "T1 construct": "extracellular domain; Baculovirus product; also called recombinant human Dsg3; not shown: C-terminal His tag", "T1 sequence (looked up)": "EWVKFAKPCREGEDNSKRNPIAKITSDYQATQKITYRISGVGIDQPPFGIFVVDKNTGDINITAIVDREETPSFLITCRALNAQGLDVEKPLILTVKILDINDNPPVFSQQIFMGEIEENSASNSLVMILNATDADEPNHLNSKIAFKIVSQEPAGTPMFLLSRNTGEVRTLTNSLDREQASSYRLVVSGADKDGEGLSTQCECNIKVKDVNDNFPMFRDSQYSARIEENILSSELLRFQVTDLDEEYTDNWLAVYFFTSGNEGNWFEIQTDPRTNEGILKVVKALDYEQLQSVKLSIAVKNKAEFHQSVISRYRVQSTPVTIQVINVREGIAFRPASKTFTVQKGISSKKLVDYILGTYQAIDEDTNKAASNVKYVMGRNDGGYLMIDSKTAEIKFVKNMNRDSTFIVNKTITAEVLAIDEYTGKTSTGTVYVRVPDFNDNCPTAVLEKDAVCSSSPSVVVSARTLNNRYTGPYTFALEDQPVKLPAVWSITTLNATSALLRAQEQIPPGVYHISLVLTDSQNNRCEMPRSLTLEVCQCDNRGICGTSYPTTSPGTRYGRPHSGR", "assay": "ELISA on recombinant human Dsg3-His", "excerpt": "The baculovirus vectors, pEVmod-Dsg3-His and pEVmod-Dsg1-His, pEVmod-mouse Dsg3-His and pEVmod-mouse Dsg1 -His, that were constructed according to the method as described previously (J. Immunol. 159, 2010-2017, 1997) were used. These recombinant baculoviruses were infected to insect cells, High Five (Invitrogen Corporation), then the recombinant protein human Dsg3-His and Dsg1-His, recombinant protein mouse Dsg3-His and Dsg1-His were collected from the culture media, respectively. In addition, purification of these recombinant proteins was conducted using Ni-NTA column. These purified recombinant proteins were coated on ELISA (Enzyme Linked Immunosorbent Assay) plates, respectively, 50 μl each of the culture supernatant of the anti-Dsg3 monoclonal antibody-producing hybridoma was added to each well, and ELISA was practiced according to the method as previously described (J Clin Invest 105, 625-631, 2000). PV mouse model 1 serum with moderate degree of antibody titer was selected as a positive control, and 1 serum of normal mouse serum was selected as a negative control. Absorbance was determined at wavelength 450 nm (Bio-rad, Hercules, Calif. USA), and the index was shown by the following formula. Index={OD(specimen)−OD(negative control)}/{OD(positive control)−OD(negative control)}×100 A-2 (Living Cell Staining using Culture Mouse Keratinocyte PAM 212)"}, "[2]": {"molecular_target": "T2, inactivated Dsg3 protein having a pro-sequence (mouse, UniProt O35902 24-617, limits assumed)", "T2 construct": "the sentence on immunoblotting itself says only 'Dsg3'; also called protein with large molecular weight; not shown: His tag", "T2 sequence (looked up)": "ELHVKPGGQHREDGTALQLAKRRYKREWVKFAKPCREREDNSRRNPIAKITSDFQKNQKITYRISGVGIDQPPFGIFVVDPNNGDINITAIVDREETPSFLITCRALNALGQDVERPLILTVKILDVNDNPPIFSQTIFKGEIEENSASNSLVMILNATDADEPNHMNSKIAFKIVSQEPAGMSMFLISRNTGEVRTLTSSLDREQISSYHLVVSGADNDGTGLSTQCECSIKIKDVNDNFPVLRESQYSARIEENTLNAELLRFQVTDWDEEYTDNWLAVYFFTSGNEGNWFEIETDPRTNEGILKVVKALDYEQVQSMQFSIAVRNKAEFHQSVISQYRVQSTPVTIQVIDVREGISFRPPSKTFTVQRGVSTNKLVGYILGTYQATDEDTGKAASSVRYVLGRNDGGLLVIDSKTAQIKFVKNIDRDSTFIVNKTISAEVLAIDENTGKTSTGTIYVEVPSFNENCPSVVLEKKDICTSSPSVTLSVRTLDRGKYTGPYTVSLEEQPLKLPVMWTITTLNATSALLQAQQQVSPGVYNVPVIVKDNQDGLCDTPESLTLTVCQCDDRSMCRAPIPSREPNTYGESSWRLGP", "assay": "immunoprecipitation and immunoblotting of recombinant Dsg3 (FIG. 7b)", "method": "Then 10 μl of protein G (Protein G sepharose 4 fast flow: Amersham Pharmacia Biotech, Buckinghamshire, England) was added and reacted overnight at […]. Centrifugation was conducted after the reaction, and 50 μl of SDS was added to the precipitate and boiled for 2 minutes. Each sample was subjected to electrophoresis with a 7.5% uniform gel plate for electrophoresis (multigel 7.5: Daiichi Pure Chemicals, Tokyo, Japan), transcribed to PVDF membrane, then blocked. Further, 100-fold diluted anti-6X histidine antibody (R&D systems, Inc. Minn., USA) was reacted for 1 hour at room temperature, washed (3 times) in TBS (Tris buffered saline), then 1000-fold diluted alkaline phosphatase-goat anti-mouse IgG (Zymed, San Francisco, Calif., USA) was reacted for 1 hour at room temperature, washed (3 times) in TBS, then developed.\nTo characterize the epitopes of monoclonal antibodes such as AK23 and the like, it was first determined whether the binding to Dsg3 of the antibodies is calcium-dependent or not. Recombinant mouse Dsg3-His was treated with or without EDTA, and then subjected to immunoprecipitation with the AK antibodies. EDTA treatment abolished the reactivity of AK19 and AK23 antibodies, but not the reactivity of the other AK antibodies (Table 3, FIG. 7a). […]"}}}
{"binder": "B1", "values": [{"measurement": "binding result", "setting": "[1]", "result": "binds"}, {"measurement": "binding result", "setting": "[2]", "result": "no binding"}]}
